In publication PMC4176424, “Thiolation-enhanced substrate recognition by D-alanyl carrier protein ligase DltA from Bacillus cereus” (F1000Research, 2014):

Assays:
[1] = target: BcDltA (D-alanyl carrier protein ligase DltA) (Bacillus cereus, UniProt Q81G39); experiment: biochemical
[2] = tested on: C[C@@H](N)C(=O)O; experiment: purified protein; conditions: 5 mM ATP, 5 mM CoA, 10 mM MgCl2, 0.1 M KCl, pH 7.2
Excerpt: pyrophosphate release, pyrophosphatase-coupled malachite green assay on BcDltA (D-alanyl carrier protein ligase DltA)

Chain of BcDltA (D-alanyl carrier protein ligase DltA) (Q81G39 whole entry): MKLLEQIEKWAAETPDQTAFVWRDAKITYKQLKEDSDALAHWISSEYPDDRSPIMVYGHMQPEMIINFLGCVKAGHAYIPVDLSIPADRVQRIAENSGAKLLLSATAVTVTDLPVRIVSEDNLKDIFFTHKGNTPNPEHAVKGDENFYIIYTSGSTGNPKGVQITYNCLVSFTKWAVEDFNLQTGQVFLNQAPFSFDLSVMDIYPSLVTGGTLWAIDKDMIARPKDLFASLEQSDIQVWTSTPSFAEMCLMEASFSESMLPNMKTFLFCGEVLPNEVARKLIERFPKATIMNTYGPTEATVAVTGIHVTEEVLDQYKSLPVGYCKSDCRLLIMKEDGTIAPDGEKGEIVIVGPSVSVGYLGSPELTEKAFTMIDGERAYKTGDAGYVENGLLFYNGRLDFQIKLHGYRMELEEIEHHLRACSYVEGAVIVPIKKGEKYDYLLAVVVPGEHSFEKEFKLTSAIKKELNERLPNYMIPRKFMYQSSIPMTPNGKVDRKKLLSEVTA

Row | Compound | Kd [1] [µM] | Km [2] | kcat [2] [s⁻¹] | kcat/Km [2] [M⁻¹ s⁻¹]
1 | Nc1ncnc2c1ncn2[C@@H]1O[C@H](COP(=O)(O)OP(=O)(O)OP(=O)(O)O)[C@@H](O)[C@H]1O [ATP] | 430 |  |  | 
2 | BcDltA (D-alanyl carrier protein ligase DltA) (Bacillus cereus ATCC 14579) |  | 0.03 ± 0.01 × 10^-3 M | 0.182 ± 0.00333 | 6050 ± 1670
